Measurements taken from US8008547B2, “Glyphosate-N-acetyltransferase (GAT) genes” (E.I. duPont de Nemours, priority 2000, dated 2011).
Substitutions are numbered along the chain they refer to.

Assays:
[1] = Transfer of the propionyl group from propionyl CoA to glyphosate (DTNB); format: biochemical; conditions: 1 mM propionyl CoA, 5 mM glyphosate or no glyphosate, 30 minutes
Description: The ability of GAT variants (B6 (SEQ ID NO:7), 0—6D10 (SEQ ID NO:448), 17-15H3 (SEQ ID NO:601), and 20-8H12 (SEQ ID NO:816)) to transfer the propionyl group from propionyl CoA to glyphosate was tested in reaction mixtures containing 5 mM glyphosate or no glyphosate. Propionyl CoA was present at 1 mM. After 30 minutes the reactions were terminated and the presence of free […] was determined by the addition of DTNB.

[2] = KM for Acetyl CoA by mass spectrometric detection of N-acetyl glyphosate; format: biochemical; conditions: for Km: read-out: apparent KM for Acetyl CoA, 5 mM glyphosate, 0.19 μM GAT, pH 7.7, 50% methanol
Description: Initial reaction rates were determined using mass spectrometric detection of N-acetyl glyphosate. Five μl were repeatedly injected into the instrument and reaction rates were obtained by plotting reaction time vs. area of the integrated peak (FIG. 6). Hyperbolic saturation kinetics were observed (FIG. 7), from which an apparent KM of 2 μM was derived.
KM for Acetyl CoA was measured using the mass spectrometry method with repeated sampling during the reaction. AcetylCoA and glyphosate (ammonium salts) were placed as 50-fold-concentrated stock solutions into a well of a mass spectrometry sample plate. Reactions were initiated with the addition of enzyme appropriately diluted in a volatile buffer such as morpholine acetate or ammonium carbonate, pH 6.8 or 7.7. The sample was repeatedly injected into the instrument and initial rates were calculated from plots of […] and peak area. KM was calculated as for glyphosate.

[3] = Apparent KM for glyphosate of purified GAT from B. licheniformis strain B6 (spectrophotometric, 235 nm); format: biochemical; conditions: 200 μM Acetyl CoA, 1 μM purified GAT, pH 7.7, 20% ethylene glycol
Excerpt: Hyperbolic saturation kinetics were observed (FIG. 5), from which an apparent KM of 2.9±0.2 (SD) mM was obtained.

[4] = test system: soybean plants; assay: Greenhouse glyphosate spray of T0 soybean plants expressing GAT transgenes (discoloration score); format: in vivo
Description: Soybean plants expressing GAT variant transgenes were produced using the method of particle gun bombardment (see Klein et al. (1987) Nature 327:70-73) using a DuPont Biolistic PDS1000/He instrument. The selection agent used during the transformation process was hygromycin. Either the hygromycin selectable marker gene remained in the transgenic events or the hygromycin gene was excised by methods known in the art. DNA fragments were prepared with a synthetic constitutive promoter, a GAT variant and PinII terminator. The selectable marker gene, comprising the 35S CaMV promoter, HPT gene and NOS terminator, was cobombarded with the GAT gene variant as described above. Bombarded soybean embryogenic suspension tissue was cultured for one week in the absence of selection agent. Embryogenic suspension tissue was placed in liquid selection medium for 6 weeks. Putative transgenic suspension tissue was sampled for PCR analysis to determine the presence of the GAT gene. Putative transgenic suspension culture tissue was maintained in selection medium for 3 weeks to obtain enough tissue for plant regeneration. Suspension tissue was matured for 4 weeks using standard procedures; matured somatic embryos were desiccated for 4-7 days and then placed on germination induction medium for 2-4 weeks. Germinated plantlets were transferred to soil in cell pack trays for 3 weeks for acclimatization. Plantlets were potted to 10-inch pots in the greenhouse for evaluation of glyphosate resistance.
To determine the level of glyphosate resistance of transgenic soybeans expressing the GAT variant transgenes, T0 plants were sprayed with glyphosate (Roundup ULTRA MAX™) in the greenhouse. Plant resistance levels were evaluated by […] • 7=minor leaf/stem discoloration • 5=worse leaf/stem discoloration • 3=severely discolored plant or dying plant • 1=dead plant
One to four plants were sent to the greenhouse from each independent transgenic event. An additional 1-2 plants per event were grown in controlled environment growth chambers for seed production and were not sprayed with glyphosate. The greenhouse plants were sprayed at 1×, 2× or 4× glyphosate (1× glyphosate=26 ounces/acre of RoundUp ULTRA MAX™) 3-4 weeks after transfer to soil. The T0 plant discoloration scores with 2× and 4× spray rates are shown in Table 10 and Table 11, respectively.

[5] = test system: tobacco plants; assay: Herbicide spray tests of GAT expressing tobacco plants; format: in vivo, Nicotiana tabacum; conditions: transgenic GAT tobacco; for plant response two weeks after glyphosate spray: 0.5, 2 or 4× glyphosate (1× = 32 oz/acre of 40% ai); for survival after second spray: 8× glyphosate dose three weeks later
Description: Tobacco shoots generated as described in EXAMPLE 9 were excised from the explants and transferred to basal root induction (BRI) medium composed of half-strength Murashige and Skoog (MS) medium, pH 5.7, with 1.5% sucrose, 0.3% Gelrite, 0-200 uM glyphosate and 400 ug/ml Timentin. Rooted plants and axillary shoots were clonally propagated by cutting the stem and transferring it to fresh BRI medium until the desired number of clones was obtained. Rooted plants were carefully removed from the solid medium. Prior to placing the plants into small pots of soil, the roots were washed to remove any remaining Gelrite. A protective plastic cover was kept over the plants for at least one week until the plants were well established.
To determine if GAT expressing tobacco plants could tolerate simulated field rate sprays of glyphosate, clonal lines of several events per GAT variant were tested. A typical test was set up as follows: One clone from each event was sprayed with 1 ml of solution containing the isopropylamine salt of glyphosate (Sigma P5671) and 0.125% Triton X-100, pH 6.8 such that the amount of active ingredient sprayed was equivalent to that present in commercial glyphosate products. For example, to achieve 32 oz/acre (1×) of herbicide containing 40% active ingredient (“ai”), 2.4 ul of 40% ai formulation was diluted into 1 ml water and sprayed on a plant in a 4-inch square pot (16 in^2). A mock application (0×) with surfactant only was also included. In some cases a second spray was applied 1-4 weeks later. Plants were kept in controlled growth rooms at 25° C. and 70% humidity with 16 hr light.
Seed-grown wild type plants were also sprayed. […] All 0× plants were healthy, including the non-GAT control plants. Three weeks later all of the surviving plants were sprayed with an 8× dose.

[6] = test system: maize plants; assay: Effect of temperature variation on glyphosate tolerance of T1 maize expressing GAT transgenes; format: in vivo; conditions: cool/cold, warm and hot conditions; 0×, 4×, 6×, 8× at V2; scored at 5 and 14 days
Description: Maize plants expressing GAT variant transgenes 10—4F2 (SEQ ID NO:202), 17-15H3 (SEQ ID NO:549), and 18-28D9b (SEQ ID NO:814) were produced using the methods described in Example 13. The effect of temperature on glyphosate tolerance was evaluated in T1 plants. The T1 plants were grown in cool/cold (day 14° C., night 8° C.), warm (day 28° C., night 20° C.), and hot (day 37° C., night 20° C.) conditions. T1 plants were sprayed at V2 with four different glyphosate spray treatments (0×, 4×, 6×, and 8×). Plants were scored at 5 and 14 days after treatment for leaf discoloration and plant height comparisons as described in Example 13.

[7] = Standard protocol for determination of kcat and KM (continuous spectrophotometric assay, Acetyl CoA hydrolysis at 235 nm); format: biochemical; conditions: purified protein; about 23° C.; 20 mM HEPES pH 6.8, 10% ethylene glycol, 0.2 mM acetyl CoA
In short: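 KM from initial rates over 0.125–10 mM glyphosate, fitted by Lineweaver-Burke transformation of Michaelis-Menten; kcat/KM computed as kcat divided by KM. Continuous spectrophotometric read of acetyl-CoA hydrolysis at 235 nm.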

[8] = 10 days after 2X glyphosate, count in parentheses

B1: SEQ ID NO:7: GAT enzyme isolated from a strain of B. licheniformis (strain B6) (protein)
chain: MIEVKPINAEDTYEIRHRILRPNQPLEACKYETDLLGGTFHLGGYYRDRLISIASFHQAEHSELEGQKQYQLRGMATLEGYREQKAGSTLIRHAEELLRKKGADLLWCNARTSVSGYYKKLGFSEQGGVYDIPPIGPHILMYKKLT
modifications: Unidentified microorganism derived from soil sample.; B6 GAT
- transfer of propionyl group to glyphosate [1]: glyphosate-dependent hydrolysis of propionyl CoA
- Kcat ([2]; calculated from Vmax at a known concentration of enzyme): 0.1 s⁻¹
- Km [2]: ~2 µM
- Km ([2]; listed as B6): 2 µM
- Km [3]: ~2900 µM
- Km ([3]; listed as B6): 2900 ± 200 µM

B2: SEQ ID NO: 193: GAT gene variant (nucleic acid)
DNA: ATGCTAGAGGTGAAACCGATTAACGCAGAGGATACCTATGAACTAAGGCATAGAATACTCAGACCAAACCAGCCGATAGAAGCGTGTATGTATGAAAGCGATTTACTTCGTGGTGCATTTCACTTAGGCGGCTATTACAGGGGCAAACTGATTTCCATAGCTTCATTCCACCAGGCCGAGCACTCAGAACTCCAAGGCCAGAAACAGTACCAGCTCCGAGGTATGGCTACCTTGGAAGGTTATCGTGAGCAGAAAGCGGGATCGAGTCTAATTAAACACGCTGAAGAAATTCTTCGTAAGAGGGGGGCGGACTTGCTTTGGTGTAATGCGCGGACATCCGCCTCAGGCTACTACAAAAAGTTAGGCTTCAGCGAGCAGGGAGAGATATTTGAAACGCCGCCAGTAGGACCTCACATCCTGATGTATAAAAGGATCACATAA
modifications: Synthetic DNA Sequence; 0_5D3
notes: GAT gene variant
- % EVENTS @ 7-8 ([4]; 10 days after 2X glyphosate (1× = 26 ounces/acre), 7=minor leaf/stem discoloration): 15%
- % EVENTS @ 3-6 ([4]; 10 days after 2X glyphosate, 5=worse discoloration, 3=severely discolored or dying): 11%
- number of events @ 3-6 [4, 8]: 3
- number of events @ 7-8 [4, 8]: 4
- plant response two weeks after glyphosate spray [5]: survived the spraying procedure without signs of glyphosate damage
- survival after second spray [5]: all GAT plants survived

B3: SEQ ID NO:202: GAT variant transgene (nucleic acid)
DNA: B2 DNA with A92T, A134T, A275G, T313A, A433C
modifications: Synthetic DNA Sequence; 10_4F2
notes: GAT variant transgene
- effect of temperature on glyphosate tolerance [6]: glyphosate tolerance is not adversely effected by the range of temperatures tested

B4: SEQ ID NO:601: GAT variant polypeptide (protein)
chain: MIEVKPINAEDTYELRHRILRPNQPIEACMFESDLLRGAFHLGGYYGGKLISIASFHQAEHSELQGQKQYQLRGMATLEGYREQKAGSSLIKHAEEILRKRGADLLWCNARTSASGYYKKLGFSEQGEVFDTPPVGPHILMYKRIT
modifications: D_S00260796_17-15H3
notes: GAT variant polypeptide
- transfer of propionyl group to glyphosate [1]: glyphosate-dependent hydrolysis of propionyl CoA

B5: SEQ ID NO:816: GAT variant (protein)
chain: B4 chain with I19V, M30I, L36M, Y45F, K49R, I53V, I91V
modifications: Synthetic DNA Sequence; CDS (1)...(441); 20-8H12c
notes: GAT variant
- transfer of propionyl group to glyphosate [1]: glyphosate-dependent hydrolysis of propionyl CoA

B6: SEQ ID NO: 448: GAT polypeptide (protein)
chain: MLEVKPINAEDTYELRHKILRPNQPLEVCMYETDLLRGAFHLGGFYRGKLISIASFHQAEHSDLQGQKQYQLRGMATLEGYRDQKAGSSLIRHAEQILRKRGADMLWCNARTSASGYYKKLGFSEQGEVFETPPVGPHILMYKRLT
modifications: 0_6D10
notes: GAT polypeptide
- Kcat [7]: 1.85 s⁻¹
- transfer of propionyl group to glyphosate [1]: glyphosate-dependent hydrolysis of propionyl CoA

B7: SEQ ID NO: 190: evolved GAT gene (nucleic acid)
DNA: ATGATAGAGGTGAAACCGATTAACGCAGAGGATACCTATGAACTAAGGCATAAAATACTCAGACCAAACCAGCCGATAGAAGCGTGTATGTATGAAAGCGATTTACTTCGTGGTGCATTTCACTTAGGCGGCTTTTACAGGGGCAAACTGATTTCCATAGCTTCATTCCACCAGGCCGAGCACTCAGACCTCCAAGGCCAGAAACAGTACCAGCTCCGAGGTATGGCTACCTTGGAAGGTTATCGTGATCAGAAAGCGGGATCGAGTCTAATTAGACACGCTGAACAAATTCTTCGTAAGAGGGGGGCGGACTTGCTTTGGTGCAATGCGCGGACATCCGCCTCAGGCTACTACAAAAAGTTAGGCTTCAGCGAGCAGGGAGAGATATTTGATACGCCGCCAGTAGGACCTCACATCCTGATGTATAAAAGGCTCACA
modifications: Synthetic DNA Sequence; 0_5B8
notes: evolved GAT gene
- plant response two weeks after glyphosate spray [5]: survived the spraying procedure without signs of glyphosate damage
- survival after second spray [5]: all GAT plants survived
